± gives the standard error. For some of these results: Variants at the floor of the assay were thinned out.
B1: glmS ribozyme (parent)
chain: AUAAAAGCGCCAGAACUACAGAAAUGUAGUUGACGAGGAGGAGGUUUAUCGAAUUUUCGGCGGAUGCCUCCAAA

Experiments:
Conditions in all cases: with glucosamine-6-phosphate
[1] = variants of: B1; assay: kcat; higher = faster cleavage; RNA array
In short: (§1)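 Sequenced MiSeq chips were the platform: E. coli RNA polymerase transcribed barcoded ribozyme variants on them in situ, and a hybridised Cy3 probe tracked these at 37 °C. After glucosamine-6-phosphate (40 μM to 10 mM) in HEPES/KCl/Mg(OAc)2 buffer was flowed in, tiles were imaged over ~14 h. Signals normalised to baseline and to non-cleaving reference variants were reduced to per-tile medians and fit to one- or two-exponential decays to obtain kobs. kcat and KM were derived through weighted Michaelis–Menten fits across concentrations.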

[2] = variants of: B1; assay: KM; higher = weaker cofactor use; RNA array
In short: as §1

[3] = variants of: B1; assay: self-cleavage kobs at 160 uM GlcN6P; higher = faster cleavage; RNA array
In short: as §1

[4] = variants of: B1; assay: self-cleavage kobs at 10000 uM GlcN6P; higher = faster cleavage; RNA array
In short: as §1

[5] = variants of: B1; assay: self-cleavage kobs at 640 uM GlcN6P; higher = faster cleavage; RNA array
In short: as §1

[6] = variants of: B1; assay: self-cleavage kobs at 2500 uM GlcN6P; higher = faster cleavage; RNA array
In short: as §1

[7] = variants of: B1; assay: self-cleavage kobs at 40 uM GlcN6P; higher = faster cleavage; RNA array
In short: as §1

| Variant | kcat [1] | KM [2] | self-cleavage kobs at 160 uM GlcN6P [3] | self-cleavage kobs at 10000 uM GlcN6P [4] | self-cleavage kobs at 640 uM GlcN6P [5] | self-cleavage kobs at 2500 uM GlcN6P [6] | self-cleavage kobs at 40 uM GlcN6P [7] |
| --- | --- | --- | --- | --- | --- | --- | --- |
| A6C U56G | 4.98e-05 ± 4.1e-06 s⁻¹ | 4200 ± 920 µM | < 1e-05 s⁻¹ | 3.5e-05 ± 1.3e-05 s⁻¹ |  |  |  |
| C10A U55G | < 1e-05 s⁻¹ |  | < 1e-05 s⁻¹ |  |  |  |  |
| A6G U54G | 0.000277 ± 1.2e-05 s⁻¹ | 1230 ± 140 µM |  | 0.000251 ± 3.1e-05 s⁻¹ | 9.48e-05 ± 1.7e-05 s⁻¹ | 0.000179 ± 2.9e-05 s⁻¹ |  |
| A12C C16A | 0.00127 ± 0.00038 s⁻¹ | 4920 ± 2400 µM | 6.12e-05 ± 1.6e-05 s⁻¹ | 0.000927 ± 9.9e-05 s⁻¹ | 0.000172 ± 2.7e-05 s⁻¹ | 0.000339 ± 5.1e-05 s⁻¹ |  |
| C34G U69A | 3.79e-05 ± 1.1e-05 s⁻¹ |  |  |  | 5.16e-05 ± 1.3e-05 s⁻¹ | 3.05e-05 ± 1.3e-05 s⁻¹ |  |
| C11A U49A | < 1e-05 s⁻¹ |  |  |  | < 1e-05 s⁻¹ | < 1e-05 s⁻¹ |  |
| A6U U49A C71G | 3.45e-05 ± 8.5e-06 s⁻¹ |  |  |  |  |  |  |
| G32A C58G | 0.000211 ± 4.8e-05 s⁻¹ | 6460 ± 3200 µM |  | 0.000129 ± 1.7e-05 s⁻¹ |  | 5.76e-05 ± 1.7e-05 s⁻¹ |  |
| G32A U65G | 0.000643 ± 0.00019 s⁻¹ | 7620 ± 3800 µM |  | 0.000374 ± 5e-05 s⁻¹ | 7.49e-05 ± 2.1e-05 s⁻¹ | 0.000139 ± 2.7e-05 s⁻¹ |  |
| A15U G44U U47G C67G | 0.000544 ± 0.00017 s⁻¹ |  |  | 0.000418 ± 9.9e-05 s⁻¹ | 0.000193 ± 3.9e-05 s⁻¹ | 0.000563 ± 9.9e-05 s⁻¹ |  |
| G37A U54A U65G | 0.000309 ± 7.3e-05 s⁻¹ | 5170 ± 1900 µM |  | 0.000215 ± 5e-05 s⁻¹ | 4.03e-05 ± 1.2e-05 s⁻¹ | 9.16e-05 ± 2e-05 s⁻¹ |  |
| U30A C67A | 0.00161 ± 0.00066 s⁻¹ |  | 0.00014 ± 3.7e-05 s⁻¹ | 0.00131 ± 0.0002 s⁻¹ | 0.000231 ± 4.7e-05 s⁻¹ | 0.00102 ± 0.00018 s⁻¹ | 4.92e-05 ± 9.2e-06 s⁻¹ |
| U49G U56A | 0.000478 ± 0.00021 s⁻¹ |  |  | 0.000466 ± 9.5e-05 s⁻¹ | 0.000105 ± 1.9e-05 s⁻¹ | 0.000173 ± 4.1e-05 s⁻¹ |  |
| A33G U57G | 1.21e-05 ± 4.2e-06 s⁻¹ |  |  | < 1e-05 s⁻¹ |  |  |  |
| A12G C16U | 0.00221 ± 0.00096 s⁻¹ |  | 4.12e-05 ± 9.2e-06 s⁻¹ | 0.00119 ± 0.0001 s⁻¹ | 0.000179 ± 2.1e-05 s⁻¹ | 0.00036 ± 4.1e-05 s⁻¹ |  |
| U55A U69A | 9.24e-05 ± 1e-05 s⁻¹ |  | 9.45e-05 ± 2.4e-05 s⁻¹ | 0.000129 ± 2.7e-05 s⁻¹ | 9.88e-05 ± 1.9e-05 s⁻¹ | 7.93e-05 ± 1.3e-05 s⁻¹ | 7.99e-05 ± 1.9e-05 s⁻¹ |
| A12C U57A | 0.000102 ± 2.4e-05 s⁻¹ |  |  | 0.000113 ± 1.9e-05 s⁻¹ | 5.75e-05 ± 1.5e-05 s⁻¹ | 6.14e-05 ± 1.2e-05 s⁻¹ |  |
| U47G A64U | 2.76e-05 ± 3.5e-06 s⁻¹ |  |  |  |  |  |  |

| Variant | kcat [1] | KM [2] | self-cleavage kobs at 160 uM GlcN6P [3] | self-cleavage kobs at 10000 uM GlcN6P [4] | self-cleavage kobs at 640 uM GlcN6P [5] | self-cleavage kobs at 2500 uM GlcN6P [6] | self-cleavage kobs at 40 uM GlcN6P [7] |
| --- | --- | --- | --- | --- | --- | --- | --- |
| A12C U55C | 0.00941 ± 0.0032 s⁻¹ | 2710 ± 1200 µM | 0.000402 ± 8.8e-05 s⁻¹ | 0.00731 ± 0.0019 s⁻¹ | 0.00235 ± 0.00034 s⁻¹ | 0.00417 ± 0.00083 s⁻¹ | 0.000147 ± 2.6e-05 s⁻¹ |
| A14C A48C | 5.79e-05 ± 1.1e-05 s⁻¹ |  |  | 4.92e-05 ± 1.2e-05 s⁻¹ |  | 4.95e-05 ± 1.2e-05 s⁻¹ |  |
| C16G G32U | 0.000915 ± 8.9e-05 s⁻¹ | 3800 ± 700 µM |  | 0.00068 ± 0.00011 s⁻¹ | 0.000144 ± 3.7e-05 s⁻¹ | 0.00032 ± 8.7e-05 s⁻¹ |  |
| A12C U47C | 0.00284 ± 0.00039 s⁻¹ | 1840 ± 380 µM | 0.000185 ± 3.6e-05 s⁻¹ | 0.00226 ± 0.0002 s⁻¹ | 0.000953 ± 0.00013 s⁻¹ | 0.00187 ± 0.00022 s⁻¹ | 5.87e-05 ± 6.2e-06 s⁻¹ |
| G13A U54G | 0.000682 ± 7.9e-05 s⁻¹ | 2540 ± 550 µM | 5.52e-05 ± 1.8e-05 s⁻¹ | 0.000537 ± 7.4e-05 s⁻¹ | 0.000123 ± 2.4e-05 s⁻¹ | 0.000363 ± 6.1e-05 s⁻¹ |  |
| U31G A33U C70U | 9.54e-05 ± 1.9e-05 s⁻¹ |  |  | 7.8e-05 ± 2e-05 s⁻¹ |  |  |  |
| C50A A64G | 1.03e-05 ± 2.3e-07 s⁻¹ | 106 ± 36 µM |  |  |  |  |  |
| A39G A48U | 0.00118 ± 0.00016 s⁻¹ | 5000 ± 1200 µM |  | 0.000774 ± 0.00011 s⁻¹ | 0.000139 ± 3.1e-05 s⁻¹ | 0.000436 ± 8.7e-05 s⁻¹ |  |
| C16A U46C | 6.68e-05 ± 1.4e-05 s⁻¹ |  |  | 5.46e-05 ± 1e-05 s⁻¹ |  | 5.11e-05 ± 1.4e-05 s⁻¹ | < 1e-05 s⁻¹ |
| C10G C58U | < 1e-05 s⁻¹ |  |  | < 1e-05 s⁻¹ | < 1e-05 s⁻¹ |  | < 1e-05 s⁻¹ |
| A6C C71G | 1.2e-05 ± 1.5e-06 s⁻¹ |  |  |  |  |  | < 1e-05 s⁻¹ |
| G32C G43U | < 1e-05 s⁻¹ |  | < 1e-05 s⁻¹ | < 1e-05 s⁻¹ | < 1e-05 s⁻¹ |  | < 1e-05 s⁻¹ |
| U31C | 0.00939 ± 0.0013 s⁻¹ | 2370 ± 430 µM | 0.000489 ± 1.7e-05 s⁻¹ | 0.00805 ± 0.00018 s⁻¹ | 0.00208 ± 7.4e-05 s⁻¹ | 0.00415 ± 0.00014 s⁻¹ | 0.000168 ± 2.9e-06 s⁻¹ |
| U54A U55A | 0.044 ± 0.016 s⁻¹ | 1290 ± 540 µM | 0.00297 ± 0.001 s⁻¹ | 0.0388 ± 0.0094 s⁻¹ |  |  | 0.00147 ± 0.00017 s⁻¹ |
| C11G G59U | 0.000116 ± 2.9e-05 s⁻¹ |  |  | 9.62e-05 ± 1.5e-05 s⁻¹ |  | 0.000106 ± 2.1e-05 s⁻¹ |  |
| U30G A33C | 4.15e-05 ± 6e-07 s⁻¹ | 2230 ± 140 µM |  | 3.4e-05 ± 8.1e-06 s⁻¹ |  |  |  |
| G32A A39C | 0.00032 ± 6.8e-05 s⁻¹ | 3190 ± 1300 µM |  | 0.000259 ± 3.2e-05 s⁻¹ | 6.63e-05 ± 1.2e-05 s⁻¹ | 0.000114 ± 2.1e-05 s⁻¹ |  |
| U31C A52U | 7.02e-05 ± 1.4e-05 s⁻¹ |  |  | 5.66e-05 ± 7.1e-06 s⁻¹ |  | 5.04e-05 ± 6e-06 s⁻¹ |  |
